This note sets out measurements from patent US20120328619A1 (published 2012).

The target in test [1] is T1, human CD123 (alpha subunit of the interleukin-3 receptor) (human, UniProt P26951 19-378).
T1 construct: whole, on cells; also called IL-3Rα
Briefly: calibrated flow cytometry. On the technique in general: Flow cytometry measures light scatter and fluorescence of single cells or particles in a stream.

Test [2] has as its target T1, human CD123 (alpha subunit of the …). Briefly: calibrated flow cytometry on CD123-transfected 293 cells. The protocol: (§1) Immunofluorescence analysis was performed on a FACSCalibur instrument using CellQuest software (Becton Dickinson, Heidelberg, Germany) as described (Schwemmlein et al, 2006). Briefly, 1×10⁴ events were collected for each sample, and whole cells were analyzed using appropriate scatter gates to exclude cellular debris and aggregates. […] KD values were determined by calibrated flow cytometry, as described (Benedict at al, 1997). The highest mean fluorescence value was set to 100%, and all data points were normalized to this value. The experiments were repeated 6 times. The KD values were calculated using a nonlinear regression curve fit.

A further test addresses T2, CD33 (human, UniProt P20138 18-364).
T2 construct: whole, on cells; also called CD33 on U937 cells
Briefly: calibrated flow cytometry on U937 cells. Here is the method:
as §1

The target in a further test is T3, human CD16 (FcγRIII) (human, UniProt P08637 17-254).
T3 construct: whole, on cells
Briefly: calibrated flow cytometry on CD16-transfected CHO cells. Here is the method: as §1

Test [3] deals with T4, CD123 and CD33 on double positive MOLM-13 cells (human, UniProt P26951 19-378; P20138 18-364).
T4 construct: whole, on cells; Two separate surface antigens on the same cell, not a complex; also called CD33/CD123
Kind of test: calibrated flow cytometry on CD123 and CD33 double positive MOLM-13 cells (avidity). Here is the method: as §1

T1 sequence (P26951 19-378): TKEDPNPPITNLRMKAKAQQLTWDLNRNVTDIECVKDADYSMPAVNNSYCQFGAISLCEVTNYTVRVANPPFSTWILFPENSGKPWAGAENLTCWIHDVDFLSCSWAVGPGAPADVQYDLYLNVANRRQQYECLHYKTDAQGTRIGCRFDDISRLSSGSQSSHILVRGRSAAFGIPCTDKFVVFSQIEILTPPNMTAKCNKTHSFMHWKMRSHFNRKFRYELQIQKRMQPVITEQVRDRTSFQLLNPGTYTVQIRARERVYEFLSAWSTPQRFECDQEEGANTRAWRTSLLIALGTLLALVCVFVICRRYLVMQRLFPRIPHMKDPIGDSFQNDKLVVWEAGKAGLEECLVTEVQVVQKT
T4 sequence (P26951 19-378, chain 1 of 2): as the sequence (P26951 19-378) above
T4 sequence (P20138 18-364, chain 2 of 2): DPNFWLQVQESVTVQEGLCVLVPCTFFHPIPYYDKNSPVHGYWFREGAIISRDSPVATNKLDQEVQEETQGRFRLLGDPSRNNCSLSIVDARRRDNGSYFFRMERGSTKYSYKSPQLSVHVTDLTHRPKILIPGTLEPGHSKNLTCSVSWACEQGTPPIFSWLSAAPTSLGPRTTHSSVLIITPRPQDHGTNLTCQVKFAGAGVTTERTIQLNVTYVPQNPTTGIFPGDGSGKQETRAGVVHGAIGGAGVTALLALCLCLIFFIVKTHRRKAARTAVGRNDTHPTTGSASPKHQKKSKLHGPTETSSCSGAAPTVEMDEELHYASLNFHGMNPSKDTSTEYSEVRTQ
T2 sequence (P20138 18-364): as the sequence (P20138 18-364, chain 2 of 2) above
T3 sequence (P08637 17-254): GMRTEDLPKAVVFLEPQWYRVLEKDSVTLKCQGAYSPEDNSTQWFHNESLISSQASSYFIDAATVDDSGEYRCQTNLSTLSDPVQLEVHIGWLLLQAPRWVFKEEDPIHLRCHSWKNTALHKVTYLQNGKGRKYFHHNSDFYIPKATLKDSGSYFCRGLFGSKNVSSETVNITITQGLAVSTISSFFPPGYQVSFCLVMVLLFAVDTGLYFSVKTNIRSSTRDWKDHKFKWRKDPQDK

B1: CD123-specific scFv clone 43 (scFv)
scFv: MADYKDIVMTQSHKFMSTSVGDRVNITCKASQNVDSAVAWYQQKPGQSPKALIYSASYRYSGVPDRFTGRGSGTDFTLTISSVQAEDLAVYYCQQYYSTPWTFGGGTKLEIKRGGGGSGGGGSGGGGSGGGGSEVKLVESGGGLVQPGGSLSLSCAASGFTFTDYYMSWVRQPPGKALEWLALIRSKADGYTTEYSASVKGRFTLSRDDSQSILYLQMNALRPEDSATYYCARDAAYYSYYSPEGAMDYWGQGTSVTVSS
notes: Murine scFv from a phage display library, expressed in E. coli from pAK400, carries a hexahistidine tag
Consider B1, for which the Kd in test [1] came out at 4.5 nM.

B2: single chain triplebody sctb [123×ds16×33] (other)
chain: MADYKDIVMTQSHKFMSTSVGDRVNITCKASQNVDSAVAWYQQKPGQSPKALIYSASYRYSGVPDRFTGRGSGTDFTLTISSVQAEDLAVYYCQQYYSTPWTFGGGTKLEIKRGGGGSGGGGSGGGGSGGGGSEVKLVESGGGLVQPGGSLSLSCAASGFTFTDYYMSWVRQPPGKALEWLALIRSKADGYTTEYSASVKGRFTLSRDDSQSILYLQMNALRPEDSATYYCARDAAYYSYYSPEGAMDYWGQGTSVTVSSASGAGGGGSGGGGSGGGGSGGGGSAAADYKDIVLTQSPASLAVSLGQRATISCKASQSVDFDGDSFMNWYQQKPGQPPKLLIYTTSNLESGIPARFSASGSGTDFTLNIHPVEEEDTATYYCQQSNEDPYTFGCGTKLELKRGGGGSGGGGSGGGGSGGGGSQVTLKESGPGILQPSQTLSLTCSFSGFSLRTSGMGVGWIRQPSGKCLEWLAHIWWDDDKRYNPALKSRLTISKDTSSNQVFLKIASVDTADTATYYCAQINPAWFAYWGQGTLVTVSRGGGGSGGGGSGGGGSGGGGSMADYKDIVMTQSHKFLLVSVGDRVSITCKASQDVSTAVAWYQQKPGQSPKLLIYSASYRYTGVPDRFIGSGSGTDFTLTISSVQAEDLADYFCQQHYSTPLTFGAGTKLEIKRGGGGSGGGGSGGGGSSGGGSEVQLKESGPGLVAPSQSLSITCTVSGFPLTSYGVSWVRQPPGKGLEWLGVIWGDGSTNYHSALISRLSISKDNSKSQVFLKLNNLQTDDTATYYCARDTYYPYYAMDYWGQGTSVTVSS
notes: also called CD123×dsCD16×CD33
Turning to B2, the Kd in test [2] was 18.8 nM; with CD33, 17.8 nM; in the test with human CD16 (FcγRIII), 21.7 nM; in test [3] it was 13.5 nM.
